Data on 91 sequences can be found in the supplement of paper PMC9112550, “Optimization of the antimicrobial peptide Bac7 by deep mutational scanning” (BMC Biology, 2022).

The data set has as its system Escherichia coli TOP10. Kind of data set: shrunken log2 fold change of peptide-encoding DNA abundance (4.5 h post-induction vs induction); higher = less antimicrobial activity (less host growth inhibition). The note with it: time post-induction: 4.5 h; library: site-saturation at positions 5, 18, 19, 20.
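Note: peptides expressed intracellularly from a pBAD plasmid library in pooled LB shake-flask culture, induced with 0.3% L-arabinose, DNA abundance read by NGS, three biological replicates, DESeq2 with apeglm shrinkage.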

Consider RRIRRRPPRLPRPRPRPCGNPRP, for which the “shrunken log2 fold change” value was 0.0466.

Take RRIRTRPPRLPRPRPRPHPMPRP: the “shrunken log2 fold change” value was -0.167.

On to RRIRCRPPRLPRPRPRPIHGPRP, for which the “shrunken log2 fold change” value was -0.33.

As for RRIRLRPPRLPRPRPRPIFWPRP, the “shrunken log2 fold change” value was -0.189.

As to RRIRTRPPRLPRPRPRPRESPRP, the “shrunken log2 fold change” value was 0.207.

Take RRIRIRPPRLPRPRPRPAPTPRP: the “shrunken log2 fold change” value amounted to 0.219.

Turning to RRIRNRPPRLPRPRPRPCSMPRP, the “shrunken log2 fold change” value is -0.132.

Regarding RRIRERPPRLPRPRPRPADNPRP, the “shrunken log2 fold change” value was -0.03.

As for RRIRERPPRLPRPRPRPRFNPRP, the “shrunken log2 fold change” value was -0.453.

RRIRARPPRLPRPRPRPGTYPRP: the “shrunken log2 fold change” value was -0.257.

Regarding RRIRKRPPRLPRPRPRPISTPRP, the “shrunken log2 fold change” value was -0.218.

As to RRIRVRPPRLPRPRPRPACKPRP, the “shrunken log2 fold change” value was -0.0847.

Take RRIRMRPPRLPRPRPRPLVLPRP: the “shrunken log2 fold change” value was determined as 0.141.

With RRIRFRPPRLPRPRPRPTRYPRP, the “shrunken log2 fold change” value amounted to 0.172.

For RRIRRRPPRLPRPRPRPWKHPRP, the “shrunken log2 fold change” value is -0.167.

Turning to RRIRLRPPRLPRPRPRPCDNPRP, the “shrunken log2 fold change” value was -0.161.

As for RRIRYRPPRLPRPRPRPAWMPRP, the “shrunken log2 fold change” value is -0.0583.

Regarding RRIRSRPPRLPRPRPRPWVLPRP, the “shrunken log2 fold change” value was determined as 2.29.

Take RRIRARPPRLPRPRPRPHRNPRP: the “shrunken log2 fold change” value turned out to be 0.192.

Take RRIRVRPPRLPRPRPRPQAHPRP: the “shrunken log2 fold change” value was -0.209.

Take RRIRHRPPRLPRPRPRPFCSPRP: the “shrunken log2 fold change” value was -0.171.

As for RRIRIRPPRLPRPRPRPSWRPRP, the “shrunken log2 fold change” value is 0.144.

Turning to RRIRGRPPRLPRPRPRPRVVPRP, the “shrunken log2 fold change” value amounted to 0.667.

Take RRIRLRPPRLPRPRPRPMGHPRP: the “shrunken log2 fold change” value was -0.0276.

As to RRIRNRPPRLPRPRPRPKGTPRP, the “shrunken log2 fold change” value turned out to be 0.118.

With RRIRNRPPRLPRPRPRPALQPRP, the “shrunken log2 fold change” value is 0.234.

For RRIRWRPPRLPRPRPRPWAVPRP, the “shrunken log2 fold change” value was 0.0624.

On to RRIRPRPPRLPRPRPRPGIYPRP, for which the “shrunken log2 fold change” value is -0.133.

As to RRIRARPPRLPRPRPRPLVYPRP, the “shrunken log2 fold change” value is -0.372.

RRIRSRPPRLPRPRPRPIAVPRP: the “shrunken log2 fold change” value was determined as 0.22.

Turning to RRIRKRPPRLPRPRPRPDVHPRP, the “shrunken log2 fold change” value was -0.00151.

Turning to RRIRCRPPRLPRPRPRPDNYPRP, the “shrunken log2 fold change” value is -0.921.

Consider RRIRQRPPRLPRPRPRPPNMPRP, for which the “shrunken log2 fold change” value is -0.089.

For RRIRMRPPRLPRPRPRPLFSPRP, the “shrunken log2 fold change” value is 0.0255.

Consider RRIRCRPPRLPRPRPRPHSHPRP, for which the “shrunken log2 fold change” value is -0.307.

In the case of RRIRMRPPRLPRPRPRPVTMPRP, the “shrunken log2 fold change” value stood at 0.116.

For RRIRSRPPRLPRPRPRPRIYPRP, the “shrunken log2 fold change” value is -0.517.

For RRIRERPPRLPRPRPRPYPFPRP, the “shrunken log2 fold change” value is -0.52.

As for RRIRERPPRLPRPRPRPDRGPRP, the “shrunken log2 fold change” value is 0.0208.

Take RRIRFRPPRLPRPRPRPMRWPRP: the “shrunken log2 fold change” value turned out to be 0.264.

Regarding RRIRNRPPRLPRPRPRPETIPRP, the “shrunken log2 fold change” value was -0.0777.

Take RRIRQRPPRLPRPRPRPNDPPRP: the “shrunken log2 fold change” value is -0.0265.

Turning to RRIRERPPRLPRPRPRPDPVPRP, the “shrunken log2 fold change” value is 0.181.

In the case of RRIRDRPPRLPRPRPRPPQAPRP, the “shrunken log2 fold change” value stood at 0.268.

Turning to RRIRHRPPRLPRPRPRPTWEPRP, the “shrunken log2 fold change” value is 0.0143.

Regarding RRIRQRPPRLPRPRPRPSFWPRP, the “shrunken log2 fold change” value came to 0.0712.

With RRIRFRPPRLPRPRPRPCIEPRP, the “shrunken log2 fold change” value is -0.422.

On to RRIRERPPRLPRPRPRPDKNPRP, for which the “shrunken log2 fold change” value is -0.383.

As to RRIRTRPPRLPRPRPRPCNEPRP, the “shrunken log2 fold change” value is -0.173.

In the case of RRIRLRPPRLPRPRPRPYHRPRP, the “shrunken log2 fold change” value worked out at 0.0373.

With RRIRQRPPRLPRPRPRPRIVPRP, the “shrunken log2 fold change” value was found to be 0.01.

In the case of RRIRFRPPRLPRPRPRPDNWPRP, the “shrunken log2 fold change” value is -0.25.

As to RRIRFRPPRLPRPRPRPICNPRP, the “shrunken log2 fold change” value is -0.424.

Regarding RRIRERPPRLPRPRPRPAYLPRP, the “shrunken log2 fold change” value is -0.296.

Consider RRIRVRPPRLPRPRPRPIKFPRP, for which the “shrunken log2 fold change” value was found to be 0.0613.

In the case of RRIRNRPPRLPRPRPRPWARPRP, the “shrunken log2 fold change” value was found to be 0.0712.

For RRIRTRPPRLPRPRPRPNHTPRP, the “shrunken log2 fold change” value is -0.312.

With RRIRERPPRLPRPRPRPTFKPRP, the “shrunken log2 fold change” value was -0.313.

For the sequence RRIRFRPPRLPRPRPRPMMAPRP, the “shrunken log2 fold change” value amounted to 0.189.

Regarding RRIRRRPPRLPRPRPRPTMSPRP, the “shrunken log2 fold change” value was found to be 0.315.

For the sequence RRIRTRPPRLPRPRPRPAMLPRP, the “shrunken log2 fold change” value was -0.0605.

With RRIRDRPPRLPRPRPRPLGRPRP, the “shrunken log2 fold change” value is 0.0897.

With RRIRFRPPRLPRPRPRPGEPPRP, the “shrunken log2 fold change” value came out at 0.118.

With RRIRNRPPRLPRPRPRPNHIPRP, the “shrunken log2 fold change” value is -0.733.

As to RRIRYRPPRLPRPRPRPLMIPRP, the “shrunken log2 fold change” value is -1.73.

For the sequence RRIRGRPPRLPRPRPRPVPSPRP, the “shrunken log2 fold change” value came out at 0.201.

In the case of RRIRARPPRLPRPRPRPNVFPRP, the “shrunken log2 fold change” value worked out at 0.258.

In the case of RRIRARPPRLPRPRPRPSSCPRP, the “shrunken log2 fold change” value is -0.0288.

Consider RRIRGRPPRLPRPRPRPIMTPRP, for which the “shrunken log2 fold change” value turned out to be 2.36.

Consider RRIRIRPPRLPRPRPRPQLEPRP, for which the “shrunken log2 fold change” value stood at 0.000806.

With RRIRPRPPRLPRPRPRPPYSPRP, the “shrunken log2 fold change” value is -0.181.

Turning to RRIRSRPPRLPRPRPRPKARPRP, the “shrunken log2 fold change” value was found to be 0.0932.

On to RRIRIRPPRLPRPRPRPINFPRP, for which the “shrunken log2 fold change” value was -0.346.

In the case of RRIRIRPPRLPRPRPRPDMNPRP, the “shrunken log2 fold change” value is -0.146.

Take RRIRYRPPRLPRPRPRPWWHPRP: the “shrunken log2 fold change” value is -0.757.

With RRIRSRPPRLPRPRPRPYPFPRP, the “shrunken log2 fold change” value is -0.716.

RRIRHRPPRLPRPRPRPRTWPRP: the “shrunken log2 fold change” value amounted to 0.207.

Consider RRIRNRPPRLPRPRPRPPLLPRP, for which the “shrunken log2 fold change” value was found to be 0.125.

For RRIRRRPPRLPRPRPRPVLDPRP, the “shrunken log2 fold change” value was 0.402.

With RRIRPRPPRLPRPRPRPQEMPRP, the “shrunken log2 fold change” value was 0.0716.

In the case of RRIRDRPPRLPRPRPRPGAMPRP, the “shrunken log2 fold change” value amounted to 0.408.

For RRIRVRPPRLPRPRPRPPWTPRP, the “shrunken log2 fold change” value was 0.223.

Consider RRIRIRPPRLPRPRPRPDISPRP, for which the “shrunken log2 fold change” value was -0.0405.

Turning to RRIRIRPPRLPRPRPRPCWAPRP, the “shrunken log2 fold change” value was -0.283.

As for RRIRSRPPRLPRPRPRPMHQPRP, the “shrunken log2 fold change” value is -0.0538.

As to RRIRFRPPRLPRPRPRPLMDPRP, the “shrunken log2 fold change” value is -0.0516.

Take RRIRIRPPRLPRPRPRPAEGPRP: the “shrunken log2 fold change” value was -0.122.

With RRIRARPPRLPRPRPRPLYMPRP, the “shrunken log2 fold change” value was -0.48.

In the case of RRIRGRPPRLPRPRPRPHPKPRP, the “shrunken log2 fold change” value was determined as 0.865.

Consider RRIRTRPPRLPRPRPRPFWSPRP, for which the “shrunken log2 fold change” value is -0.178.

Turning to RRIRFRPPRLPRPRPRPVVFPRP, the “shrunken log2 fold change” value is -0.119.
